Test results reported in patent US20090270309A1, “USE OF LACTOFERRIN FRAGMENTS AND HYDROLYSATES” (priority 2005, published 2009).

Tests used:
[1] = test system: osteoclast development in a bone marrow culture; assay: Osteoclast development in mouse bone marrow culture (count of multinucleated osteoclast-like cells); format: cell-based; conditions: for Inhibition of osteoclast development in a bone marrow culture (in words): mouse bone marrow culture, 1 week, ANOVA P<0.0001; for Concentration with significant inhibition of osteoclast development: FIG. 7
Method: Bone marrow cultures were used to determine the effect of lactoferrin fragments on osteoclast development. The method used has been previously described (see Cornish, et al., (2001)). Bone marrow was obtained from the long bones of four to six week old Swiss male mice by flushing the marrow cavity with media. The cell suspension was incubated for two hours and the non-adherent cells were plated into 48-well plates and cultured in 1.25 vitamin D3 enriched media for 1 week with lactoferrin fragments at a range of concentrations. Cells were fixed and stained and multinucleated osteoclast-like cells were counted.
A recombinant N-lobe fragment of full length recombinant human lactoferrin (SEQ ID NO. 5) and a lactoferrin C-lobe fragment (SEQ ID NO. 8) were tested. Osteoprotegerin was used as a positive inhibitor control. Full length recombinant human lactoferrin was also tested. The results are shown in FIGS. 6 and 7, as described above.

primary rat osteoblasts = assay: Proliferation of primary rat osteoblasts (cell counts and [3H]-thymidine incorporation); format: cell-based; conditions: for Mitogenic / proliferative effect on primary osteoblasts (in words): figure legends, significantly different from control by ANOVA, post hoc Dunnett's test; for Dose (ug/mL): minimum dose range that stimulates osteoblast proliferation: primary rat osteoblasts, Table 1
Method: Osteoblasts were isolated by collagenase digestion from 20-day fetal rat ? viously described by Lowe, et al. (1991). Calvariae were dissected aseptically, and the frontal and parietal bones were stripped of their periosteum. Only the central portions of the bones, free from suture tissue, were collected. The calvariae were treated twice with phosphate buffered saline (PBS) containing 3 mM EDTA (pH 7.4) for 15 minutes at 37° C. in a shaking water bath. After washing once in PBS, the calvariae were treated twice with 3 ml of 1 mg/ml collagenase for 7 minutes at 37° C. After discarding the supernatants from digestions I and II, the calvariae were treated further two times with 3 ml of 2 mg/ml collagenase (30 mins, 37° C.). The supernatants of digestions III and IV were pooled, centrifuged, and the cells washed in Dulbecco's modified Eagle's medium (DME) with 10% fetal calf serum (FCS), suspended in DME/10% FCS, and placed in […] flasks. The cells were incubated under 5% CO2 and 95% air at 37° C. Confluence was reached by 5-6 days, at which time the cells were subcultured. After trypsinization using trypsin-EDTA (0.05%/0.53 mM), the cells were rinsed in minimum essential medium (MEM) with 5% FCS and resuspended in a fresh medium, then seeded at 5×10^4 cells/ml in 24-well plates (0.5 ml cell suspension per well, i.e., 1.4×10^4 cells/cm^2).
Proliferation studies (cell counts and thymidine incorporation) were performed both in actively growing and non-actively growing cell populations. To produce actively growing cells, sub-confluent populations (24 h after subculturing) were placed in fresh MEM containing 1% FCS and a lactoferrin fragment sample (see Table 1 below). To produce non-actively growing cells, sub-confluent populations were placed in serum-free medium with 0.1% bovine serum albumin plus a lactoferrin fragment sample. Cell numbers were analyzed at 6, 24, and 48 hours after the addition of lactoferrin fragment samples. The cell numbers were determined after detaching cells from the wells by exposure to trypsin/EDTA (0.05%/0.53 mM) for approximately 5 minutes at 37° C. Counting was performed in a haemocytometer chamber. [3H]-thymidine incorporation into actively growing and non-actively growing cells was assessed by pulsing the cells with [3H]-thymidine (1 μCi/well) two hours before the end of the incubation. The experiment was terminated at 6, 24, or 48 hours by washing the cells in MEM containing cold thymidine followed by the addition of 10% trichloroacetic acid. The precipitate was washed twice with ethanol:ether (3:1), and the wells desiccated at room temperature. The ? redissolved in 2 M KOH at 55° C. for 30 min, neutralized with 1 M HCl, and an aliquot counted for radioactivity. For both cell counts and thymidine incorporation, each experiment at each time point was performed at least 4 different times using experimental groups consisting of at least 6 wells.
The osteogenic response seen above was compared with that of insulin-like growth factor 1 (IGF-1), a well-recognized osteoblast mitogen. The magnitudes of response of the lactoferrin fragments were similar to IGF-1 in the same osteoblast cell culture system.

Row | Molecule | Inhibition of osteoclast development in a bone marrow culture (in words) [1] | Concentration with significant inhibition of osteoclast development ([1]; positive inhibitor control, P<0.01 (post hoc Dunnett's test)) | Mitogenic / proliferative effect on primary osteoblasts (in words) (primary rat osteoblasts) | Dose (ug/mL): minimum dose range that stimulates osteoblast proliferation (primary rat osteoblasts) | Concentration with significant inhibition of osteoclast development ([1]; P<0.05 (post hoc Dunnett's test))
1 | full length recombinant human lactoferrin: Full-length recombinant human lactoferrin, comparator (protein, UniProt P02788 1-710, looked up, full-length recombinant, Full-length recombinant human lactoferrin, comparator) MKLVFLVLLFLGALGLCLAGRRRSVQWCAVSQPEATKCFQWQRNMRKVRGPPVSCIKRDSPIQCIQAIAENRADAVTLDGGFIYEAGLAPYKLRPVAAEVYGTERQPRTHYYAVAVVKKGGSFQLNELQGLKSCHTGLRRTAGWNVPIGTLRPFLNWTGPPEPIEAAVARFFSASCVPGADKGQFPNLCRLCAGTGENKCAFSSQEPYFSYSGAFKCLRDGAGDVAFIRESTVFEDLSDEAERDEYELLCPDNTRKPVDKFKDCHLARVPSHAVVARSVNGKEDAIWNLLRQAQEKFGKDKSPKFQLFGSPSGQKDLLFKDSAIGFSRVPPRIDSGLYLGSGYFTAIQNLRKSEEEVAARRARVVWCAVGEQELRKCNQWSGLSEGSVTCSSASTTEDCIALVLKGEADAMSLDGGYVYTAGKCGLVPVLAENYKSQQSSDPDPNCVDRPVEGYLAVAVVRRSDTSLTWNSVKGKKSCHTAVDRTAGWNIPMGLLFNQTGSCKFDEYFSQSCAPGSDPRSNLCALCIGDEQGENKCVPNSNERYYGYTGAFRCLAENAGDVAFVKDVTVLQNTDGNNNEAWAKDLKLADFALLCLDGKRKPVTEARSCHLAMAPNHAVVSRMDKVERLKQVLLHQQAKFGRNGSDCPDKFCLFQSETKNLLFNDNTECLARLHGKTTYEKYLGPQYVAGITNLKKCSTSPLLEACEFLRK | inhibition of osteoclast development | – | – | – | –
2 | osteoprotegerin (protein, UniProt O00300 22-401, looked up) Tumor necrosis factor …: ETFPPKYLHYDEETSHQLLCDKCPPGTYLKQHCTAKWKTVCAPCPDHYYTDSWHTSDECLYCSPVCKELQYVKQECNRTHNRVCECKEGRYLEIEFCLKHRSCPPGFGVVQAGTPERNTVCKRCPDGFFSNETSSKAPCRKHTNCSVFGLLLTQKGNATHDNICSGNSESTQKCGIDVTLCEEAFFRFAVPTKFTPNWLSVLVDNLPGTKVNAESVERIKRQHSSQEQTFQLLKLWKHQNKDQDIVKKIIQDIDLCENSVQRHIGHANLTFEQLRSLMESLPGKKVGAEDIEKTIKACKPSDQILKLLSLWRIKNGDQDTLKGLMHALKHSKTYHFPKTVTQSLKKTIRFLHSFTMYKLYQKLFLEMIGNQVQSVKISCL | – | 10 ng/mL | – | – | –
3 | SEQ ID NO. 5: Recombinant human lactoferrin N-lobe, residues 1-333 of SEQ ID NO. 4, expressed from baby hamster kidney cells (protein, Recombinant human lactoferrin N-lobe, 4, expressed from baby hamster kidney cells) GRRRRSVQWCAVSQPEATKCFQWQRNMRKVRGPPVSCIKRDSPIQCIQAIAENRADAVTLDGGFIYEAGLAPYKLRPVAAEVYGTERQPRTHYYAVAVVKKGGSFQLNELQGLKSCHTGLRRTAGWNVPIGTLRPFLNWTGPPEPIEAAVARFFSASCVPGADKGQFPNLCRLCAGTGENKCAFSSQEPYFSYSGAFKCLRDGAGDVAFIRESTVFEDLSDEAERDEYELLCPDNTRKPVDKFKDCHLARVPSHAVVARSVNGKEDAIWNLLRQAQEKFGKDKSPKFQLFGSPSGQKDLLFKDSAIGFSRVPPRIDSGLYLGSGYFTAIQNLR | inhibition of osteoclast development | – | osteoblast proliferative effects | 0.1 to 10 µg/mL | –
4 | SEQ ID NO. 6: Bovine lactoferrin N-lobe, residues 1-280 of SEQ ID NO. 2, tryptic cleavage (protein, listed as Bos taurus) APRKNVRWCTISQPEWFKCRRWQWRMKKLGAPSITCVRRAFALECIRAIAEKKADAVTLDGGMVFEAGRDPYKLRPVAAEIYGTKESPQTHYYAVAVVKKGSNFQLDQLQGRKSCHTGLGRSAGWIIPMGILRPYLSWTESLEPLQGAVAKFFSASCVPCIDRQAYPNLCQLCKGEGENQCACSSREPYFGYSGAFKCLQDGAGDVAFVKETTVFENLPEKADRDQYELLCLNNSRAPVDAFKECHLAQVPSHAVVARSVDGKEDLIWKLLSKAQEKFGK | – | – | mitogenic to primary osteoblasts | 1 to 100 µg/mL | –
5 | SEQ ID NO. 8: Bovine lactoferrin C-lobe, residues 285-689 of SEQ ID NO. 2, controlled tryptic hydrolysis (protein, listed as Bos taurus) SFQLFGSPPGQRDLLFKDSALGFLRIPSKVDSALYLGSRYLTTLKNLRETAEEVKARYTRVVWCAVGPEEQKKCQQWSQQSGQNVTCATASTTDDCIVLVLKGEADALNLDGGYIYTAGKCGLVPVLAENRKSSKHSSLDCVLRPTEGYLAVAVVKKANEGLTWNSLKDKKSCHTAVDRTAGWNIPMGLIVNQTGSCAFDEFFSQSCAPGADPKSRLCALCAGDDQGLDKCVPNSKEKYYGYTGAFRCLAEDVGDVAFVKNDTVWENTNGESTADWAKNLNREDFRLLCLDGTRKPVTEAQSCHLAVAPNHAVVSRSDRAAHVKQVLLHQQALFGKNGKNCPDKFCLFKSETKNLLFNDNTECLAKLGGRPTYEEYLGTEYVTAIANLKKCSTSPLLEACAFLTR | inhibition of osteoclast development | – | mitogenic to primary osteoblasts | 1 to 100 µg/mL | 50000 ng/mL
6 | SEQ ID NO. 7: Bovine lactoferrin C-lobe, residues 345-689 of SEQ ID NO. 2, tryptic cleavage (protein, listed as Bos taurus) VVWCAVGPEEQKKCQQWSQQSGQNVTCATASTTDDCIVLVLKGEADALNLDGGYIYTAGKCGLVPVLAENRKSSKHSSLDCVLRPTEGYLAVAVVKKANEGLTWNSLKDKKSCHTAVDRTAGWNIPMGLIVNQTGSCAFDEFFSQSCAPGADPKSRLCALCAGDDQGLDKCVPNSKEKYYGYTGAFRCLAEDVGDVAFVKNDTVWENTNGESTADWAKNLNREDFRLLCLDGTRKPVTEAQSCHLAVAPNHAVVSRSDRAAHVKQVLLHQQALFGKNGKNCPDKFCLFKSETKNLLFNDNTECLAKLGGRPTYEEYLGTEYVTAIANLKKCSTSPLLEACAFLTR | – | – | mitogenic to primary osteoblasts | 1 to 100 µg/mL | –
